PMC10119292, “Characterization of a fold in TANGO1 evolved from SH3 domains for the export of bulky cargos” (Nature Communications, 2023)
Values belong to the binder of their own block, whether it stands above or below them.

Columns and labels:
[1] = target: Collagen type IV from human placenta (human) (UniProt P08572); assay: MST; RED-NHS-labeled collagen type IV constant at 25 nM, unlabeled partner varied (16 1:1 dilutions); 10 mM HEPES pH 7.2, 150 mM NaCl, 0.005% Tween-20, 15 µM BSA; 25 °C; 60% LED power, high MST power, MST-on time 1.5 s
[2] = target: human TANGO1 cargo-recognition (MOTH) domain, residues 21-131 (human, UniProt Q5JRA6-4 21-131, disulfides Cys38-Cys43 and Cys61-Cys124; cis-Pro83; His-tag removed with TEV (PDB 7R3M entity has one extra N-terminal Met); 15N or 15N/13C labelled for NMR); assay: NMR titration; 1H-15N HSQC series of 208 µM [U-15N]-hsTANGO1(21-131) with peptide 132-151 at ratios 1:0.25 to 1:6; 25 mM HEPES pH 7.4, 150 mM NaCl, 298 K; two-dimensional lineshape analysis (TITAN), two-state binding model; settings: both partners purified
[3] = target: T1, human Otoraplin, residues 18-128 (human, UniProt Q9NRC9 18-128); assay: NMR titration; 1H-15N HSQC series of [U-15N]-Otoraplin with SOS1 (1149-1158) at protein:peptide ratios 1:0.5 to 1:50; PBS pH 7.4, 298 K; two-dimensional lineshape analysis (TITAN), two-state binding model; settings: both partners purified
T1 construct: Otoraplin, human, UniProt Q9NRC9, residues 18-128; [U-15N]-enriched for the NMR titrations; also called Otoraplin (18-128); not shown: His-tag, N-terminal, cleaved
T1 sequence (looked up): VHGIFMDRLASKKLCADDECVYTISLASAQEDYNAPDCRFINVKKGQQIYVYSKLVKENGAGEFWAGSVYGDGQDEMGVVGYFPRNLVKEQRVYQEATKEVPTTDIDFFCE

human TANGO1 cargo-recognition (MOTH) domain, residues 21-131, sequence (Q5JRA6 other isoform, or with tags, fused parts or gaps): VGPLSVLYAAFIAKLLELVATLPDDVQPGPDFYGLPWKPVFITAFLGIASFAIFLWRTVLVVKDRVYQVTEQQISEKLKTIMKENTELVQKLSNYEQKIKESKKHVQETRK

Kd [1]: 9.9 µM
B1: human Otoraplin, residues 18-128 (domain or fragment)
chain: T1 sequence (looked up)

Kd [1]: 6.9 µM
B2: Drosophila melanogaster TANGO1 cargo-recognition domain, residues 30-139 (domain or fragment)
chain: TLTWAATLSDKRLCADPKCEQIISMGIAKITYAIGGEGLISFKINSPIRVLSKSAGSNMQLWGVDINGRRGYANKDFIMEKKILVRDKDLLYEVPVVGPGSPVQSVETPV

Kd [2]: 321 µM | koff [2]: 1100 s⁻¹
B3: synthetic peptide of human TANGO1 residues 132-151 (predicted C-terminal helix) (peptide, UniProt Q5JRA6 132-151, looked up)
peptide: FHNYNVEELLGFLELYNSAA
notes: TANGO1, human, UniProt Q5JRA6, residues 132-151; also called C-terminal helix peptide; peptide corresponding to residues 132–151; source: synthetic peptide

Kd [3]: 1300 µM | koff [3]: 350000 s⁻¹
B4: SOS1 (1149-1158), class II PPII helix peptide (peptide, UniProt Q07889 1149-1158, looked up)
peptide: VPPPVPPRRR
notes: SOS1, residues 1149-1158; also called class II ligand; PPII class II ligand; source: synthetic peptide

Kd [1]: 11.4 µM
B5: human TALI MOTH domain, residues 23-123 (domain or fragment)
chain: TKLLADLKKCGDLECEALINRVSAMRDYRGPDCRYLNFTKGEEISVYVKLAGEREDLWAGSKGKEFGYFPRDAVQIEEVFISEEIQMSTKESDFLCLLGVS

Kd [1]: 3.3 µM
B6: human TANGO1 MOTH domain with C-terminal helix, residues 21-151 (domain or fragment)
chain: PGQLDPSTGRRFSEHKLCADDECSMLMYRGEALEDFTGPDCRFVNFKKGDPVYVYYKLARGWPEVWAGSVGRTFGYFPKDLIQVVHEYTKEELQVPTDETDFVCFDGGRDDFHNYNVEELLGFLELYNSAA
